Assay: yeast display, Sf9 membrane polyspecificity reagent, FACS + sequencing; frameworks hold sequencing errors
Outline: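 In a synthetic yeast display library (Saccharomyces cerevisiae BJ5465), nanobody expression was induced with galactose for 36–48 hours. FACS gates were set low and high (top ~1%) using anti-HA fluorescence for expression and streptavidin fluorescence for binding of the Sf9 membrane reagent. Each polyreactivity label is drawn from the gate of origin.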

Row | Sequence | polyreactivity (PSR sort gate)
1 | QVQLEESGGGLVQAGGSLRLSCASYGSTFTYNAMGLYIQAPAKERELVAVIRPGGTTNYADSVKGRFTISRDNAKNSVYLQMNSLKPVDTAVYYCAADVRRYDGYDYWGQGTQVTVSS | low polyreactivity
2 | QVQLVESGGGLVQAGGSLRLSCAASGRIFEVYAMGWYRQAPGKERELVAAITSSGGSRTYYADSVKGRFTISRDNAKNTVYLQMNSLKPEDTAVYYCAASTHRGRYKRYDYWGQGTQVTVSS | high polyreactivity
3 | QVQLVESGGGLVQAGGSLRISCAASGSTVRYYAMGWNRQAHGKERHLVARNTSRAGRTYYADSVKGRFTISRDNAKNTVYLQMNSLKPEDTAVYYCAADQSGFRWKWYIRYDYWGQGTQVTVSS | high polyreactivity
4 | QVQLVESGGGLVQAGGSLRLSCAASGNTFYFYAMGWYRQAPGKERELVAAIRWSGSRTYADSVKGRFTISRDNAKNTVYLQMNSLKPEDTAVYYCNADSIWGYDYWGQGTQVTVSS | high polyreactivity
5 | QVQLVESGGGLVQAGGSLRLSCAASGNTINVNTMGWYRQAPGKERELVAAISKRGGSTYYADSVKGRFTISRDNAKNTVYLQMNSLKPEDTAVYYCAKQVSLPRYHYGSAPYGYWGQGTQVTVSS | high polyreactivity
6 | QVQLVESGGGLVQAGGSLRLSCAASGSIFLTNAMGWYRQAPGKEREFVAAIDWGGTITYYADSVKGRFTISRDNAKNTVYLQMNSLKPEDTAVYYCAADPTYPYGYWGQGTQVTVSS | low polyreactivity
7 | QVQLVESGGGLVQAGGSLRLSCAASGSTFSYNAMGWYRQAPGKERELVAAITSGSSTNYADSVKGRFTISRDNAKNTVYLQMNSLKPEDTAVYYCAADGYQDKYYWLENWVGYWGQGTQVTVSS | low polyreactivity
8 | QVQLVESGGGLVQAGGSLRLSCAASGFTFPYYAMGWYRQAPGKERELVAAISRSGTSTNYADSVKGRFTISRDNAKNTVYLQMNSLKPEDTAVYYCATARRQGKVIQYYYWGQGTQVTVSS | high polyreactivity
9 | QVQLVESGGGLVQAGGSLRLSCAASGSIIKRNAKGWYRQAPGKERELVASISSGGSTKYADSVKGRFTISRDNAKNTVYLQMNSLKPEDTAVYYCAKRSSQTRRAYDYWGQGTQVTVSS | low polyreactivity
10 | QVQLVESVGGLVQAGGSLRLSCAASGSIFLQYTMGWYRQAPGKERELVAAITESDGSTYYADSVKGRFTISRDNAKNTVYLQMNSLKPEDTAVYYCAADVVYFKYWDKYDYWGQGTQVTVSS | low polyreactivity
11 | QVHLVESGGGLVQAGGSLRLSCAASGSTLVYNDMGWYRQAPGKEREFVAAIRSNDGSTYYADSVKGRFTISRDNAKNTVYLQMNSLKPEDTAVYYCAAERGYPKFGYWGQGTQVTVSS | low polyreactivity
12 | QVQLVESGGGLVQAGCSLSISCAASGSTFFRYAMGLYRQAPGKERELVAAISKSGASTYYADSVKGSFTISRDNAKNTVYLQMNRLKPEDTAVYYCNADVKKSSAREWQYCYDYWGQGTQVTVSS | low polyreactivity
13 | QVQLVESGGGLVQAGGSLRLSCAASGRTSKVYAMGWYRQAPGTERELVAAITRGNTYYADSVKGRFTISRDNAKNTVYLQMNSLKPEDTAVYYCAADYRYWLSYFKKYDYWGQGTQVTVSS | high polyreactivity
14 | QVQLVESGGGLVQAGGSLRLSCAASGRIFQKYAMGWYRQAPGKERELVAAISSGDSTYADSVKGRFTISRDNAKNTVYLQMNSLKPEDTAVYYCNREVPESQGFITPDGYCGQGTQVTVSS | low polyreactivity
15 | QVHLVESGGGLVQAGGSLRLSCAASGSTFISYAMGWYRQAPGKERELVAAISRNGGRTYYADSVKGRFTISRDNAKNTVYLQMNSLKPEDTAVYYCAAAYNSYRFDYWGQGTQVTVSS | high polyreactivity
16 | QVQLVESGGGLVQAGGSLRLSCAASGIIFWRYAMGWYRQAPGKERELVASISSSGGRTYYADSVKGRFTISRDNAKNTVYLQMNSLTPEDTAVYYCAARGPYGYDLLYYWGQGTQVTVSS | high polyreactivity
17 | QVQLVESGGGLVQAGGSLRLSCAASGFIFRYYAMGWYRQAPGKERELVAAISSGGGTYYADSVKGRFTISRDNAKNTVYLQMNSLKPEDTAVYYCNKASTSYYRFNYWGQGTQVTVSS | high polyreactivity
18 | QVQLVESGGGLVQAGGSLRLSCAASGSTFSYNAMGWSRQAPGKERELVAAISSAISTNYADSVKGRFTISRDNAKNTVYLQLNSLKPDDTAVYYCNKVPDFVFLISYQLYYTKRLGYWGQGTQVNVSS | low polyreactivity
19 | QVQLVESVGGLVQAGGSLRLSCAASGGIFNTYAMGWYRQAPGKEREFVAANSRRGGGTYYADSVKGRFTISRDNAKNTVYLQMNSLKPEDTAVYYCNADVKRGSRGYGSDHWGQGTQVTVSS | high polyreactivity
20 | QDQIVESCGGLVQAGGSLRLSCASSGNIIYPKAMGWYRQAPGKERDLVAAISTSRGSTYYADSVKGRFTISRDNAKNTVYLQMNSLKPEDTAVYYCNRRGPYGYKAWAIGTIGDLDYWGQGTQVTVSS | low polyreactivity
21 | QVQLVESGGGLVQAGGSLRLSCAASGSISAPNAMGWYRQAPGKERELVATINSGGRTNYADSVKGRFTISRDNSKNTVYLQMNSLKPEDTAVYYCNTVFRGAYTYGDVSKYDYWGQGTQVTVSS | low polyreactivity
22 | QVQLVESGGGLVQAGGSLRLSCAASGFIFDYYAMGWYRQAPGKERELVAAITSRSGSTYYADSVKGRFTISRDNAKNTVYLQMNSLKPEDTAVYYCAARRARRDPVGYVYAKYGYWGQGTQVTVSS | high polyreactivity

Row | Sequence | polyreactivity (PSR sort gate)
23 | QVQLVESGGGLVQAGGSLRLSCAASGLIFSQYAMGWYRQAPGKEREFVARISSSGGSTYYADSVKGRFTISRDNAKNTVYLQMNSLKPEDTAVYYCAAVGGRNIRVWFRTKYDYWGQGTQVTVSS | low polyreactivity
24 | QVQLVESGGGLVQAGGSLRLSCAASGIIFRYAMGWYRQAPGKERELVAAIRKSDGSTYYADSVKGRFTISRDNAKNTVYLQMNSLKPEDTAVYYCNAVTVGLYDYWGQGTQVTVSS | high polyreactivity
25 | QVQLVESGGGLVQAGGSLRLSCAASGSIFYFNAMGWYRQAPGKERELVAAINYSGGSTYYADSVKGRFTISRDNAKNTVYLQMNSLKPEDTAVYYCAAVTYFGWYPYRMEYWGQGTQVTVSS | high polyreactivity
26 | QVQLVESGGGLVQAGGSLRLSCAASGGTFRDYAMGWYRQAPGKERELVASISWTVGGTYADSVKGRFSISRDNAKNTVYLQMNSLKPEDTAVYYCAADYSPSTWYLYYTLYYYWGQGTQVTVSS | low polyreactivity
27 | QVQLEESGGGLVQAGGSLRLSCAASGRILSLYAMGRYRQAPGKERELVAAIRWSGSRTYYADSVKGRFTISRDNAKNTVYLQMNSLKPEDTAVYYCAAESHYPHKPGSDYWGQGTQVTVSS | high polyreactivity
28 | QVQLVESGGGLVQAGGSLRLSCAASGRIFAYNTMGWYRQAPRKERELVAVITSGGATNYADSVKGRFTISRDNAKNTVYLQMNSLKPEDTAVYYCAKRPYGRSGGSRYDYWGQGTQVTVSS | high polyreactivity
29 | QVQLVESGGGLVQAGGSLRLSCAASRSTFNYYTMGWYRQAPGKERELVAAISRGGSTYYADSVKGRFTISRDNAKNTVYLQMNSLKPEDTAVYYCAATVYPRYFRKYDYWGQGTQVTVSS | high polyreactivity
30 | QVQLEESGGGLVQAGGSLRLSCAASGFIFAFNAMGWYRQAPGKEREMVATISWNDGGTYYADSVKGRFTISRDNAKNTVYLEMNSLKPEDTAVYYCAADWYLYLDDKYDYWGQGTQVTVSS | low polyreactivity
31 | QFQLVESGGGLVQAGGSLRLSCAASGFTFWYYAMGWYRQAPGKERELVARITSRGADTYADSVKGRFTISRDNAKNTVYLQMNSLKPEDTAVYYCAVDPGFSWYEQYDYWGQGTQVTVST | low polyreactivity
32 | QVQLVESGGCLVQAGGSLRLSSAASGSTFYYYVMGLYRQAPGKERELVAAINSGGSTYYADSVQGRFTISRDNAKNTVYLQMNSLKPEDTAVYYCAKSCSYWYQYYYWGQGSQVTVSS | low polyreactivity
33 | QLQLVESGGGLVQAGGRLRLSCAASGFIFHINARGWYRQAPGKEREFVAAISRSVGSTSYADTVKGRFTNSRDNAKNTVYLLMNSLKPEDTAVYYCNAALRKRKGPYDYWGQGTQVTVSS | high polyreactivity
34 | QVQLVESGGGLVQAGGSLRLSCAASGSTFTGYAMAWYRQAPGKERELVAAISSDGGSTYYADSVKGRFTMSRDNAKNTVYLQMNSLKPEDTAVYYCAALVYVSGYGYYYWGQGTQVTVSS | high polyreactivity
35 | QVQLQESGGGLVQAGGSLRLSCAASGSIFYEFYMGWYRQAPGKERELVAAIANGASTYYADSVKGRFTISRDNSKNTVYLQMSSLKPEDTAVYYCAVNTTSDIDYIYWGQGTQVNVSS | low polyreactivity
36 | QVQLVESCGGLVQAGGSLRLSCAASGFIFRIYAMGWYRQAPGKERELVAAITWSGGRTFYADSVKGRFTISRDNAKNTVYLQMNSLKPEDTAVFYCAARGRSSGFGYWGQGTQVTVSS | high polyreactivity
37 | QVQLVESGGGLVQAGGSLRLSCAASGFTIYYYAMGWYRQAPGKERELVASISWRGGSTYYADSVKGRFTISRDNAKNTDYIQINSLKAEDTAVYYCAAQKRGSPGNRRDYWGQGTQVTVSS | high polyreactivity
38 | QVQLVESGGGLVQAGGSLRLSCAASGFTFPYYAMGWYRQAPGKERELVAAISTRGGSTYYADSVKGRFTISRDNAKNTVYLQMKSLKPEDTAVYYCAADPGRVTRVGVRYYYWGQGTQVTVSS | high polyreactivity
39 | QVQLVESGGGLVQEGGSLRLSCAASGLIFYDNMGWYRQAPGKERELVAAISSSGGSTSYADSVKGRFTISRDNAKNTVYLQMNSLKPEDTAVYYCAADSYPAYLGFVGFDYWGQGTQVTVSS | low polyreactivity
40 | QVQLVESGGGLVQAGGSLRLSCAASGRTFRTYAMGWYRQAPGKERELVAAITTSGSSTYYADSVKGRFTISRDNAKNTVYLQMNSLKPEDTAVYYCAAARAAIVPGYYSWGQGTQVTVSS | low polyreactivity
41 | QVQLVESGGGLVQAGGSLRLSCAASGSIFPFYAMGWYRQAPGKERELVAAISWSVGNTYYADSVKGRFTISRDNAKNTVYLQMNRLKPEDTAVYYCAARQDPPLGYDYWGQGTQVTVSS | low polyreactivity
42 | QVQLVESGGGLVQAGGSLRLGCAASGGTITSYAMGWYRQAPGKERELVAAITVSGSSTYYADSVKGRFTISRDNAKNTVYLQMNSLKPEDTAVYYCAARWRRFQFDYWGQGTQVTVSS | high polyreactivity
43 | QVQLVESGGGLVQAGGSLRLSCAASGSIFRSYAMGWYRQAPGKERELVAAIRSDGRTNYADSVKGRFTISRDNAKNTVYLQMNSLKPEDTAVYYCAAKAYYSYWRSMDYWGQGTQVTVSS | low polyreactivity
